# The DeepSol protein solubility set
# Test: soluble on expression in E. coli; label from the status in PepcDB or PDB records
row,Sequence,soluble on expression in E. coli
1,MSLKVHLNYETGPEHWADLQSRLAPGIRLSSGECRPANGFDILVSGEPTLEELEGNGRLRAVIVPWVGVPLATLDRMKEFPSIALHNLPYNIGPTAEMAVALLLAAAKRIVPYDQRLRRGYWSGEHTGVPGSVMLDGGLAVILGYGRIGRRVAAACRGLGMRIAGVRRNPGTSDEEYALADLSGLLPQAAALIVCLPHTHQTDRLIGSRELERLPSNAVLVNVARGGIVNEEALYRTLQARRIYAAGIDVWYRYPSATERKQGLPHPPSSFPFHTLDNVVMSPHRAGWSEEKEPARIAELANMLNAAARGEGHHHHHH,not soluble
2,MFNKVSVIGLGYIGLPTAAVLASRGLDVVGVDVNAHAVDTINKGEIHIVEPDLDIVVRSAVMTGKLKATLTAEPADAFLVAVPTPFKGDNHEPDLSYIEAAAKTIAPVLAKGNLVVLESTSPVGTTEKLAQWLAEARPDLTFPQQKGIAADVKIAYCPERVLPGYVLQELVSNDRVIGGVSKACSEKAVALYKTFVKGECIVTNARTAEMAKLTENSFRDVNIAFANELSLVCNKLKINVWELIRLANRHPRVSILNPGPGVGGHCIAVDPWFIVNSCPDEAQLIRTAREVNDGKPHWVVDQVKQAADQFKKPIIACLGLAFKADIDDLRESPALDITKHLAESKVGQLLAVEPNITELPSKLAKQGIELVSLERALELANIVVVLVDHKEFKAADKTEFAKKVVIDTRGVVA,not soluble
3,VANKIKLGHVHLSGCTGCLVSTADNNLGFIKILDNYADLVYSLTLADVRHVPEMDVALVEGSVCIQDHESVEEIRETREKAKIVVALGSCACYGNITRFSRGGQHNQPQHESFLPIGDLIDVDVYIPGCPPSPELIRNVAVMAYMLLEGDEDQKALAGRYLKPLMD,not soluble
4,MSLKAVIGISASEVTIQSGPFMGEPRTYVNAAYVDSVLKNGGIPLVIPFTAGGEEMAFKQLDLVDGLILSGGHDLNPHLYGEEIDQKSGETWPDRDAFDMALLKRAEETGKPVLGICRGAQIINVAHGGSMWQDLSLRPGNTLKHMQAIRPDVGTHVVKIKSGTTLKKIMGKSSLMTNSFHHQLIKEVAPDLTESASASDGVTEALESTDGKVIAVQWHPEEMHANPAPEAAIMNRLFKYLIDKAEEEKEGHHHHHH,soluble
5,MGSDKIHHHHHHMDKQLWEKAVAFHGHECPGLAIGFRACEAVQEKMGLKFSQDEEVVCVTENDACGADAVQVITGCSFGKGNLIYRGTGKMAFSFFSRNTGESMRIVLKPSSSEMDRQERQNYILTAPMDDVFEFKKPGFTLPKQARLFKTVICEVCGEGAPEHKMRLQEGKKVCLDCFEDYSRGY,not soluble
6,TVVVSEAGASVYSASEFAANEFPNLDVSLRGAVSIARRLQDPLAELVKIEPKAIGVGQYQHDVNQTQLARKLDAVVEDCVNAVGVDLNTASAPLLARVAGMTKTLAQNIVEYRDENGRFESRSELKKVPRLGPKAFEQCAGFMRIANGKNPLDASGVHPEAYPVVEKILQATAQSIQDLMSNAGVVRQLDAKQFI,not soluble
7,EMTDLQSTHKNFLFEIEEVGIKNLTYPVLIDQYQTAGLFSFSTSLNKNEKGINMSRILESVEKHYDNGIELEFNTLHQLLRTLQDKMNQNAAGVDVSGKWFFDRYSPVTNIKAVGHADVTYGLAIENHTVTRKELTIQAKVTTLCPCSKEISEYSAHNQRGIVTVKAYLDKNNDVIDDYKDKILDAMEANASSILYPILKRPDEKRVTERAYENPRFVEDLIRLIAADLVEFDWIEGFDIECRNEESIHQHDAFARLKYRK,not soluble
8,MGSDKIHHHHHHMNEEEDAFSYLSKLGLTPYEIKVYKTLLIYGPNSATETAKLSKVPQPRVYDIFESLESKGAVEVSPGKRKIYRAVPIDNFIDRKLIEIRDYKKRIESYIEQQKKFKESNPYLWMIKNNFQIREKMKDVINEAENELIASLNYENIRYLKKYFIDAAKRGITVVIVAFPDAELDFLRTFPEDIVIRIRRGSASQVMIADRKHGLINVESTEDSEGYALYFDENELIHILNYYFYHTIWGPSDMFHDFPVRQNIKFSTAWLSCEAIDSFFKRSYSVSGIVTGYSATGQVKIEGTITGIDLIPGFKHTFFIKDNERVYSVGGKTARMEDIKLETLTMNVWIPNKQAISQKQ,not soluble
9,MNRISTSSVNSSFNYTAPTEEAQNRFASAPDNSPLVVTTTSIAQASEGLQRPGATLSMQAQRLRQLMGSPSEQCRRDTMLAKAFDAQRLNINTQAGSSNSPHLNALNTLQQRHFKPAAGGLEIPVTSNSLLGGGRQVYQIGSSSRELSHRPVNDQDRAPFRALERLHAELFRGGPIEFVPRGSNVLASNVRDVDMDEFDVINSKDGCQGIGTTGLGPCIAVCARGMDREGLPVLGVYHHSGIGSPEDTMATLDQAMRDKGALQIKYSLVGGMIMPKEEEAGSYDDEQSFLALKGSYSIEGARLHVSEGEEDVHTGEDNSVNVLLMPDRVLYGRDTLYC,not soluble
10,MSLSRIIMLIPTGTSVGLTSVSLGVIRAMERKGVRLSVFKPIAQPRTGGDAPDQTTTIVRANSSTTTAAEPLKMSYVEGLLSSNQKDVLMEEIVANYHANTKDAEVVLVEGLVPTRKHQFAQSLNYEIAKTLNAEIVFVMSQGTDTPEQLKERIELTRNSFGGAKNTNITGVIVNKLNAPVDEQGRTRPDLSEIFDDSSKAKVNNVDPAKLQESSPLPVLGAVPWSFDLIATRAIDMARHLNATIINEGDINTRRVKSVTFCARSIPHMLEHFRAGSLLVTSADRPDVLVAACLAAMNGVEIGALLLTGGYEMDARISKLCERAFATGLPVFMVNTNTWQTSLSLQSFNLEVPVDDHERIEKVQEYVANYINADWIDSLTATSERSRRLSPPAFRYQLTELARKAGKRIVLPEGDEPRTVKAAAICAERGIATCVLLGNPAEINRVAASQGVELGAGIEIVDPEVVRESYVGRLVELRKNKGMTETVAREQLEDNVVLGTLMLEQDEVDGLVSGAVHTTANTIRPPLQLIKTAPGSSLVSSVFFMLLPEQVYVYGDCAINPDPTAEQLAEIAIQSADSAAAFGIEPRVAMLSYSTGTSGAGSDVEKVREATRLAQEKRPDLMIDGPLQYDAAVMADVAKSKAPNSPVAGRATVFIFPDLNTGNTTYKAVQRSADLISIGPMLQGMRKPVNDLSRGALVDDIVYTIALTAIQSAQQQEGHHHHHH,not soluble
11,MSLVKYGVVGAGYFGAELARYMQKNDGAEITLLYDPDNAEAIAEELGAKVASSLDELVSSDEVDCVIVATPNNLHKEPVIKAAQHGKNVFCEKPIALSYQDCREMVDACKENNVTFMAGHIMNFFNGVHHAKELINQGVIGDVLYCHTARNGWEEQQPSVSWKKIREKSGGHLYHHIHELDCVQFLMGGMPETVTMTGGNVAHEGEHFGDEDDMIFVNMEFSNKRFALLEWGSAYRWGEHYVLIQGSKGAIRLDLFNCKGTLKLDGQESYFLIHESQEEDDDRTRIYHSTEMDGAIAYGKPGKRTPLWLSSVIDKEMRYLHEIMQGAPVSEEFAKLLTGEAALEAIATADACTQSMFEDRKVKLSEIVKEGHHHHHH,soluble
12,MSLELNGRALSSTIAPRTQAQRILQTQKISSTDLVVVIGLGNPHLIFEVHKSLEPGQVLLLVDEYPELIFPLWDGILEPVMDVPGRHLFLGHSALNLLWNYLESLPVERVSGIRVFRNTASTALNETYYSDLEIKIRKILSSKMSDLLTKFEFERIWVRNTFVNTANFPDSKNPRTRIESLKGKFLDTPAMLVSAGPSLRSQCEWISKVRDKVFLFSCDTSFKALLKFGIVPDGVITLDAQTHSFFHFMGAESSNVPLFADLVSSPSILRSQKFTKIVHSLSAKYVVDASGEFKREVTAGSKTAEKLLGPIGDIQSGGSVATTAFDLLRNLGCKPIFLVGQDLAYSGREEGHHHHHH,not soluble
13,MGSDKIHHHHHHMFELHPDSSTPLVNQIIDGLRELIDNQTLKPGAKVPSIRAFAASYSVSTFTVVEAYDRLVAQGLLVSRGNAGFFVNRAAGELLEQHNTEADTSRPTFNSEWYLQQIFEIRQLPYKPGCGWLPNDWMYEDGLRRGLRQVAGSPLELSGYGDPMGLMELRALTAQNLQQELSIVANPAQLMLTHGASQALDLAARTLVRPGDVVLVDDPGYPNLMSILRTQGATLVGVPRTPAGYDLNQLEQLLSHHRPTAFFTQPHLHSPTCSRTPLPQLHRLLQLASQHGFRLVENNLYADMVAEPQPCLASLDHLQQVVYVGSYSKSISPNVRVGYMLANPELMQKLLHLKMRSGLTTSQVMERVVYAAIIDGRWRKHLKRLRQRLAEAHQEVGRHLHRLGFELFTESDEGMYIWTRHPAIPDSAALLDDALEKGIMLGPGQLFMVDAKATGWMRFNVAFSTDPAMWELLEKVLVKHVRRSGM,not soluble
14,MLNVEPSFAEELRSSGVSLSATYLGSVPVVESINVMVSEMRVQVVSECIQHVAATVGVTAAREINPVVSRPTLHGSMKKPR,not soluble
15,MGSDKIHHHHHHMGRAPTMEADMRILLLCWRDTTHPQGGGSERYLEHIAKYLVASGHEVIFRTARHTDASRRAVRDGVEYQYAGGKYSVYVRAAVAQLMGRLGVGRLRGVDVAVDTQNGIPFFARVFSGVPTILLTHHCHRRQWDVAGPLIARLGWFIESKVSPWVHRGVRYVTVSEPSRDELVELGVPAGNITIVRNGIDDPPAPMNLPPVTRPHLVTLSRLVPHKQIEHAIDVVRELDGVVLDIIGSGWWEPQLREYARDVADRVIFHGQVAEDHKHALLAQAAVHVMPSRKEGWGLAVIEAGQHGVPTVGYSHSGGLRDSVRGGGVLVETPAQLTCAIRQLLADQRYRDELGRRAYGFASTFSWEDTGREFLRVIAQPQIPAAAHSTKQPNPR,not soluble
16,MGSDKIHHHHHHMESEIKTRGFAIDVSRDKLTVAKAELVITQEKREVEVNEVREFKYDNEGIEELIKFLGEYKEGIMESTGPYFFYLHEELTEKGYKVTLINPLHLKEVFGKKTDKLDAQRLAKAFILGAVKGSYIPTGEIRELRELTRYRESLMRKITQVKNEIRKFLEMAGYKIEPFDKRGMALLEKLSRGEGLSKEERDELKEKLGRSLNDAEKLALKQLVDLLKSLEAMVKEVEDMIISKIPQPVVELSRELV,not soluble
17,MGSDKIHHHHHHMRYVILARNLDSKAGGISVYGRNLIKKLEAKGIDVIISPKEKFSYFKWLLFDVPIFILKTDADVYHAIGIIEGILLPFIKPRAKKYLTVHDLIPLKYKGRGFRKILERFLVRLGLFSARFYDKIFAVSHLTKLDVIRFGGIDENKIEVVYQPIDDKFLKTPTSGKRHKTFNIGYISRMEAYKRHELLIKLFMKYKNPNARLYLAGTGPLFKKIQKLAEEDKRIILLGFVPDDKIVEFYDMLDVYIHPSKYEGWGLPIVEATARKKPVIIFEDAEIPREVKYLCLSIDFNIINPLISNLKYLKKVGVIKNKAWRRIYENSICH,not soluble
18,MHHKAKVIGMLKETIRSGDWKGEKHVPVIEYEREGDLVKVEVSVGKEIPHPNTPEHHIAWIELYFHPEGGQFPILVGRVEFTNHSDPLTEPRAVFFFKTSKKGKLYALSYCNIHGLWENEVQLE,soluble
19,MGHHHHHHGSLVPRGSRAYSFKVVLLGEGCVGKTSLVLRYCENKFNDKHITTLQASFLTKKLNIGGKRVNLAIWDTAGQERFHALGPIYYRDSNGAILVYDITDEDSFQKVKNWVKELRKMLGNEICLCIVGNKIDLEKERHVSIQEAESYAESVGAKHYHTSAKQNKGIEELFLDLCKRMIET,soluble
20,MVKFLRDLVKIPGESAEEGNKIARAKAEMEKLGFDKIDIDPQGNLLGYMGSGEKLIAFDGHMDTVGIGEMSNWKFDPYDGYETETEIGGRGTSDQEGGIVSAIYGAKIMKDLGLLSEKYTALVTVTVQEEDCDGLCWQYIIKEDGIRPEFVVSTEPTDGGIYRGQRGRMEIKVDVKGVSCHGSAPERGDNAIYKMADILQDVRALNNNGDTESTAIRGLVRMLDPKYNPEWQEARFLGRGTVTVSQIFHSSPSRCAVADGCTVSLDRRMTAGETWESCLEEIRNLPAVKKYGDDVTVSMYNYDRPSYTDLTYEIECYFPTWVIPENHDVTKALMETHKNLYGETRKGSVETVEMREERPLLDKWTFSTNGVSIMGRNGIPCIGFGPGAEAQAHAPNEKTWKDDLVRCAAVYAALPTVYCG,not soluble
